Series [1] relates to TIB214, an IL15 sensitive cell line. As to the kind of experiment: SADA-Cytokine dependent proliferation. Type of series: cell-based. An excerpt:
(§1) […] to FIG. 11D depict in vitro activity of P53-Cytokine, P63-Cytokine and P73-Cytokine SADA-Cytokines. FIG. 11A depicts a graph showing SADA-Cytokine dependent proliferation. The dose dependent proliferative response of TIB214 cells to each of P53-Cytokine (circles), P63-Cytokine (squares) and P73-Cytokine (triangles) is shown. FIG. 11B depicts a graph showing NK Cell cytotoxicity improvement from SADA-Cytokine stimulation. Bar graph summarizes peak cytotoxicity improvement from exposure of human NK cells to each SADA-Cytokine for 3 days. Cytotoxicity was assessed over a 4 hr period using a GD2(+) cell line that is sensitive to NK mediated killing and an anti-GD2 IgG (Ahmed, M. et al. (2015) OncoImmunology). Control (black bar), P53-Cytokine (medium gray bar), P63-Cytokine (dark gray bar) and P73-Cytokine (light gray bar). FIG. 11C depicts a graph showing T Cell cytotoxicity improvement from SADA-Cytokine stimulation. Bar graph summarizes peak cytotoxicity improvement from exposure of human T cells to each SADA-Cytokine for 3 days. Cytotoxicity was assessed over a 4 hr period using a GD2(+) cell line and a T-cell engaging anti-GD2 IgG-scFv bispecific (Xu, H. et al. (2015) Cancer immunology research). Control (black bar), P53-Cytokine (medium gray bar), P63-Cytokine (dark gray bar) and P73-Cytokine (light gray bar). FIG. 11D depicts a graph showing tumor growth in DKO mice with GD2(+) tumors implanted subcutaneously. Each mouse was treated with PBMCs (gray triangles) and a low dose of an anti-tumor IgG-scFv (Xu, H. et al. (2015) Cancer immunology research) and additional cytokines. Untreated tumors grew out very quickly (black lines). Tumors treated with the IgG-scFv and an Fc-Cytokine (Liu et al. 2016 JBC, http://www.jbc.org/content/291/46/23869) with a mutation to improve binding (light gray line) shrunk tumors slower than mice treated with the IgG-scFv and SADA-Cytokine (dark gray line).
(§2) This example documents the in vitro activity of exemplary SADA-cytokine multimers. […] Additionally, each complex could prime effector immune cells to kill more strongly. […]

Another series has as its system human T cells. Kind of series: T cell cytotoxicity improvement from SADA-Cytokine stimulation. Type of series: cell-based. Conditions: incubated three days; cytotoxicity over a 4 hr period, GD2(+) cell line.
Text: as §1, §2

In the next series the test system is Human NK cells. Kind of series: NK cell cytotoxicity improvement from SADA-Cytokine stimulation. Type of series: cell-based. Conditions: 1 nM for three days; cytotoxicity over a 4 hr period.
Text: as §1, §2

The next series has as its system tumors. Type of series: in vivo, mice. The procedure:
FIG. 8A and FIG. 8B depict tumor responses after treatment with a SADA-BiDE construct P53-BIDE(NOHIS) in vivo. FIG. 8A depicts a graph showing the change in tumor volume after administration of 1 (circles) or 4 (squares) doses of P53-BiDE. As a reference other mice were also treated with IgG-BiDE (Cheal, S. M. et al. (2014) Mol Cancer Ther) and clearing agent (triangles). FIG. 8B provides images of an exemplary mouse treated with a single dose of P53-BIDE(NOHIS) from the experimental data shown in FIG. 8A. Images are shown of the mouse on days 1, 8 and 15 with a box around the site of the tumor.
In mice with significant tumor burden (>500 mm^3 tumor volumes) a single 250 μg (1.25 nmol) dose of P53-BIDE(NOHIS) was administered followed 24 hour later by administration of 2mCi of ^177Lu-Bn-DOTA.

Series [2] in a line: Blood and tumor activity after P53-BiDE(noHIS) and 177Lu-Bn-DOTA administration (FIG. 6A, 6D, 6E). Type of series: in vivo, mice. The conditions noted are these: mouse, in vivo. The procedure: FIG. 6A to FIG. 6E depict pharmacokinetics of exemplary SADA-BiDE constructs in vivo. FIG. 6A depicts activity over time after P53-BiDE(noHIS) and Bn-DOTA administration. Each line represents one group, with three mice per group. Triangles denote a group that received P53-BiDE(noHIS) followed by clearing agent (CA) 72 hours later. Squares denote a group that received P53-BiDE(noHIS) without any clearing agent before ^177Lu-Bn-DOTA administration. Circles denote a group that only received ^177Lu-Bn-DOTA but not any SADA-BiDE. Dashed lines correspond to the measured blood activity, while solid lines correspond to the activity measured in the tumor. […] FIG. 6B depicts blood activity of radiolabeled 131I-SADA-BiDE in tumor-free mice. Activity measurements were normalized to the initial measurement for each group. Each line represents one group, with 4-5 mice per group. (+) symbols denote P53-BiDE, (X) symbols denote P63-BiDE and circles denote P73-BiDE. FIG. 6C depicts blood activity in tumor bearing mice treated with either IgG-BiDE (Cheal, S. M. et al. (2014) Mol Cancer Ther) or SADA-BiDE and then injected with ^177Lu-Bn-DOTA. Each line represents one group, with 3-5 mice per group. Circles denote a group that received IgG-BiDE (Cheal, S. M. et al. (2014) Mol Cancer Ther) followed by clearing agent 48 hrs later. Squares denote a group that received P53-BiDE. Diamonds denote a group that received P63-BiDE. Hexagons denote a group that received P73-BiDE. No SADA-BiDE treated mice received any clearing agent. A representative anti-tumor IgG and ^177Lu-Bn-DOTA alone clearance curves were added as a reference. (+) symbols with a dotted line denote the ^124I-labeled anti-GD2 IgG, and (x) symbols with a dotted line denote ^177Lu-Bn-DOTA alone. […]
Importantly, even though, as described in the previous examples, P53-BIDE(NOHIS), P53-BiDE, P63-BiDE and P73-BiDE is rapidly cleared from the serum, total tumor uptake of was not affected. With both 24 hours and 72 hours between P53-BIDE(NOHIS) and ^177Lu-Bn-DOTA injections, significant activity (˜15% ID/g) was measured at the tumor site (FIG. 6D) […]

The source of these data is patent US11583588B2, “Modular self assembly disassembly (SADA) technologies” (MEMORIAL SLOAN KETTERING CANCER CENTER, priority 2017, dated 2023).

B1: P53-Cytokine: IL15Rα, huP53-tet, IgG3 spacer; associates non-covalently with soluble IL15; SEQ ID NO: 57 (protein)
chain: ITCPPPMSVEHADIWVKSYSLYSRERYICNSGFKRKAGTSSLTECVLNKATNVAHWTTPSLKCIRTPLGDTTHTSGKPLDGEYFTLQIRGRERFEMFRELNEALELKDAQAGKEPGGSGGAPHHHHHH
As for B1, the “proliferation of TIB214 relative to untreated control cells” value in series [1] is reported as “robust proliferation”. Moreover, the “IgG-scFv dependent killing of tumor cells by T cells” value (“IgG-scFv dependent killing” for short) in the series with human T cells is listed as “strongly increased IgG-scFv dependent killing”. Moreover, the “NK cell cytotoxic response against a GD2(+) neuroblastoma cell line” value (shortened to “NK cell cytotoxic response”) in the series with Human NK cells is reported as “increased antibody-independent cytotoxic response”.

B2: P63-Cytokine: IL15Rα, huP63-tet, IgG3 spacer; associates non-covalently with soluble IL15; SEQ ID NO: 59 (protein)
chain: ITCPPPMSVEHADIWVKSYSLYSRERYICNSGFKRKAGTSSLTECVLNKATNVAHWTTPSLKCIRTPLGDTTHTSGRSPDDELLYLPVRGRETYEMLLKIKESLELMQYLPQHTIETYRQQQQQQHQHLLQKQGGSGGAPHHHHHH
Consider B2, for which the “proliferation of TIB214 relative to untreated control cells” value in series [1] was “robust proliferation”. Moreover, the “IgG-scFv dependent killing” value in the series on human T cells is “strongly increased IgG-scFv dependent killing”. The “NK cell cytotoxic response” value in the series with Human NK cells is “increased antibody-independent cytotoxic response”.

B3: P53-BiDE(noHIS): hu3F8-scFv, huC825-scFv, huP53-tet, GS linker, IgG3 spacer, lacks terminal HIS tag; SEQ ID NO: 17 (protein)
chain: EIVMTQTPATLSVSAGERVTITCKASQSVSNDVTWYQQKPGQAPRLLIYSASNRYSGVPARFSGSGYGTEFTFTISSVQSEDFAVYFCQQDYSSFGCGTKLEIKRGGGGSGGGGSGGGGSQVQLVESGPGVVQPGRSLRISCAVSGFSVTNYGVHWVRQPPGKCLEWLGVIWAGGITNYNSAFMSRLTISKDNSKNTVYLQMNSLRAEDTAMYYCASRGGHYGYALDYWGQGTLVTVSSGGGGSGGGGSGGGGSGGGGSHVQLVESGGGLVQPGGSLRLSCAASGFSLTDYGVHWVRQAPGKGLEWLGVIWSGGGTAYNTALISRFTISRDNSKNTLYLQMNSLRAEDTAVYYCARRGSYPYNYFDAWGCGTLVTVSSGGGGSGGGGSGGGGSQAVVTQEPSLTVSPGGTVTLTCGSSTGAVTASNYANWVQQKPGQCPRGLIGGHNNRPPGVPARFSGSLLGGKAALTLLGAQPEDEAEYYCALWYSDHWVIGGGTKLTVLGTPLGDTTHTSGKPLDGEYFTLQIRGRERFEMFRELNEALELKDAQAGKEPGGSGGA
For B3, in the series with tumors (mouse, in vivo), the “clinical or histologic toxicity” value was “did not induce any clinical or histologic toxicity”. The tumor response result with tumors (tumor volumes >500 mm^3, single 250 μg (1.25 nmol) dose, 2mCi 177Lu-Bn-DOTA 24 hour later, no CA) is reported as “completely ablate tumors in all four mice treated”. In series [2], the “activity measured at the tumor site” value was around 15 % ID/g, the “clearance from blood without clearing agent” value is “almost completely cleared” and the “retention at the target site” value is on record as “stably retained at the target site”.

B4: P73-Cytokine: IL15Rα, huP73-tet, IgG3 spacer; associates non-covalently with soluble IL15; SEQ ID NO: 61 (protein)
chain: ITCPPPMSVEHADIWVKSYSLYSRERYICNSGFKRKAGTSSLTECVLNKATNVAHWTTPSLKCIRTPLGDTTHTSGRHGDEDTYYLQVRGRENFEILMKLKESLELMELVPQPLVDSYRQQQQLLQRPGGSGGAPHHHHHH
As for B4, in series [1], the “proliferation of TIB214 relative to untreated control cells” value is given as “robust proliferation”. Also, in the series on human T cells, the “IgG-scFv dependent killing” value is listed as “strongly increased IgG-scFv dependent killing”. Also, the “NK cell cytotoxic response” value with Human NK cells is recorded as “increased antibody-independent cytotoxic response”.
